The target of data set [1] is NF-kB p50/p50 homodimer (NFKB1) (Homo sapiens, UniProt P19838 P19838:1-433). Description: EMSA; competition vs 32P 113/114 probe. Particulars: protein: extract; tags: none; nuclear extract of LPS-stimulated THP-1 cells; chain copies: 2 (stated homodimer). From the text: (§1) The EMSA assay was employed to characterize oligonucleotide decoys for the NF-κB transcription factor. […] Using the above modified oligonucleotides to compete for binding for the above-mentioned NF-κB family members, it was possible to compare the binding affinity of these oligonucleotides against the high affinity radiolabeled probe and each other. This assay has also enabled the design of a decoy which selectively binds particular members of the NF-κB family. By using increasing concentrations of various oligonucleotides, it was observed that, by deleting or changing targeted residues in the binding site, it was possible to specifically decrease the binding of the decoy molecule to p50/p50 homodimers, while retaining the affinity for p65/p50 and cRel/p50 heterodimers.
(§2) The NF-κB gel shift assays (EMSA) were performed as follows. A double-stranded oligonucleotide containing a consensus NF-κB binding site (5′ […] 3′) (SEQ ID NO: 78) was end-labeled with γ³²P-ATP using T4 Polynucleotide Kinase (Promega). Alternatively, a double-stranded ODN containing a consensus NF-κB binding site from the IL-6 promoter (5′ […] 3′) (SEQ ID NO: 94) was end-labeled with γ³²P-ATP using T4 Polynucleotide Kinase (Promega). One microgram of a nuclear extract prepared from LPS stimulated THP-1 cells (human monocyte cell line) was incubated with 35 fmol of radiolabeled probe in the presence or absence of competing unlabeled NF-κB double-stranded oligonucleotides (dsODN) or scrambled dsODN. The incubations were carried out at room temperature for 30 minutes in a 20 μl reaction volume composed of 10 mM Tris-HCl pH 8, 100 mM KCL, 5 mM MgCl2, 2 mM DTT, 10% Glycerol, 0.1% NP-40, 0.025% BSA and 1 μg Poly-dIdC. The reactions were loaded onto a 6% polyacrylamide gel, subjected to electrophoresis and dried. The dried gels were imaged and quantitated using a Typhoon 8600 PhosphorImager (Amersham) and ImageQuant software.

Data set [2] addresses NF-kB p65/p50 heterodimer (RelA/NFKB1) (Homo sapiens, UniProt Q04206;P19838 Q04206:1-551,P19838:1-433). Description: EMSA; competition vs 32P 113/114 probe. The note with it: protein: extract; tags: none; nuclear extract of LPS-stimulated THP-1 cells.
From the text: as §1, §2

NF-kB p65/p50 heterodimer (RelA/NFKB1), sequence (Q04206 whole entry, chain 1 of 2): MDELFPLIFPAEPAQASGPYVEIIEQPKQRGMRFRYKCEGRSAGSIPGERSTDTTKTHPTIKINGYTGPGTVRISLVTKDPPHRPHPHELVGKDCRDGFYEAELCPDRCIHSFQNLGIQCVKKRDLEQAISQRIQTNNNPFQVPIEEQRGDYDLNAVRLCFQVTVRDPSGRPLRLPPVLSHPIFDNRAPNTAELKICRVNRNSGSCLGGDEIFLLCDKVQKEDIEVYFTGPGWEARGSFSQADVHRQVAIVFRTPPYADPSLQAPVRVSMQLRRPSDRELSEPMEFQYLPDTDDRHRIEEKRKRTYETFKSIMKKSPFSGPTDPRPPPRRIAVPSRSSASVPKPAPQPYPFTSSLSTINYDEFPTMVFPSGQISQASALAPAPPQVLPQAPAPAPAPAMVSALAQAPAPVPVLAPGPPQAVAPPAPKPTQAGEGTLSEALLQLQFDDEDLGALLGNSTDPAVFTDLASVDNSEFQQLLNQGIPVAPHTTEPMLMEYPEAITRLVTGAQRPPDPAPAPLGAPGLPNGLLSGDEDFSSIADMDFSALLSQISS
NF-kB p65/p50 heterodimer (RelA/NFKB1), sequence (P19838 1-433, chain 2 of 2): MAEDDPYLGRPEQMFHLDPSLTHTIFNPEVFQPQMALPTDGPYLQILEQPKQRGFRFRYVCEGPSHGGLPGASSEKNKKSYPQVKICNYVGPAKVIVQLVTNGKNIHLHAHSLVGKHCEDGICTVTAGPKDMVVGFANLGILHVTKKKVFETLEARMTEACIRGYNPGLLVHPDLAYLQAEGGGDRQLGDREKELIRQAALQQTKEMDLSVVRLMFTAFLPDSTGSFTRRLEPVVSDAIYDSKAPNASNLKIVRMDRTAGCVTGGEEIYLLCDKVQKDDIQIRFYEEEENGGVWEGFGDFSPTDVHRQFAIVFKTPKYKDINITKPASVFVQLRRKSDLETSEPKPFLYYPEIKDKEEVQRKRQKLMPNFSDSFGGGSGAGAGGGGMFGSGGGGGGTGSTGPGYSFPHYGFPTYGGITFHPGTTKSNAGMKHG
NF-kB p50/p50 homodimer (NFKB1), sequence (P19838 1-433, one chain of several): as the sequence (P19838 1-433, chain 2 of 2) above

B1: decoy 235 L-V (dsDNA)
DNA 1: TCGGACTTTCCCTC
DNA 2: GAGGGAAAGTCCGA
As to B1, the IC50 in data set [1] was determined as 62.5 fold molar excess; in data set [2], 37 fold molar excess.

B2: 153/154 H4/H4 (dsDNA)
DNA 1: AGTTGAGGACTTTCCAGGC
DNA 2: GCCTGGAAAGTCCTCAACT
modifications: PS at the 4 3'-most linkages of each strand
On to B2, for which the IC50 in data set [2] was 85 fold molar excess.

B3: 153/154 PO/H11 (dsDNA)
DNA 1: AGTTGAGGACTTTCCAGGC
DNA 2: GCCTGGAAAGTCCTCAACT
modifications: strand 153 PO; strand 154 PS at the 11 3'-most linkages
Regarding B3, the IC50 in data set [1] was determined as 40 fold molar excess; in data set [2], 7.5 fold molar excess.

B4: decoy 129 D-V (dsDNA)
DNA 1: TCGGGATTTCCTC
DNA 2: GAGGAAATCCCGA
For B4, the IC50 in data set [1] and in data set [2] was 37.5 fold molar excess throughout.

B5: 153/154 H7/H7 (dsDNA)
DNA 1: AGTTGAGGACTTTCCAGGC
DNA 2: GCCTGGAAAGTCCTCAACT
modifications: PS at the 7 3'-most linkages of each strand
The molecule B5 registered an IC50 in data set [2] of 39 fold molar excess.

B6: 153/154 H8/H10 (dsDNA)
DNA 1: AGTTGAGGACTTTCCAGGC
DNA 2: GCCTGGAAAGTCCTCAACT
modifications: PS at the 8 (153) and 10 (154) 3'-most linkages
Take B6: the IC50 in data set [2] amounted to 33 fold molar excess.

B7: decoy 191 A-X (dsDNA)
DNA 1: CTGGGACTTTCCTC
DNA 2: GAGGAAAGTCCCAG
Consider B7, for which the results for the IC50 in data set [1] and in data set [2] were 22.5 fold molar excess and 19 fold molar excess, respectively.

B8: decoy 289 (dsDNA)
DNA 1: TGAGGACTTTCCAGGC
DNA 2: GCCTGGAAAGTCCTCA
For the molecule B8, the IC50 in data set [2] stood at 93 fold molar excess.

B9: 153/154 PO/PS (dsDNA)
DNA 1: AGTTGAGGACTTTCCAGGC
DNA 2: GCCTGGAAAGTCCTCAACT
modifications: strand 153 PO; strand 154 full PS
With B9, the IC50 in data set [1] and in data set [2] was 5 fold molar excess throughout.

B10: 153/154 H8/H8 (dsDNA)
DNA 1: AGTTGAGGACTTTCCAGGC
DNA 2: GCCTGGAAAGTCCTCAACT
modifications: PS at the 8 3'-most linkages of each strand
For B10, the IC50 in data set [2] came to 29 fold molar excess.

B11: decoy 281 E-Z EVEN (dsDNA)
DNA 1: TTGAGGACTTTCCAGGC
DNA 2: GCCTGGAAAGTCCTCAA
In data set [2], B11 returned an IC50 of 87 fold molar excess.

B12: decoy 155 E-V (dsDNA)
DNA 1: TCGGACTTTCCTC
DNA 2: GAGGAAAGTCCGA
With B12, the IC50 came to 97 fold molar excess in data set [1] and 81 fold molar excess in data set [2].

B13: 153/154 H3/H3 (dsDNA)
DNA 1: AGTTGAGGACTTTCCAGGC
DNA 2: GCCTGGAAAGTCCTCAACT
modifications: PS at the 3 3'-most linkages of each strand
Take B13: the IC50 in data set [2] was found to be 45 fold molar excess.

B14: 153/154 H11/H11 (dsDNA)
DNA 1: AGTTGAGGACTTTCCAGGC
DNA 2: GCCTGGAAAGTCCTCAACT
modifications: PS at the 11 3'-most linkages of each strand
On to B14, for which the IC50 was determined as 27 fold molar excess in data set [1] and 24 fold molar excess in data set [2].

B15: decoy 279 E-Z A->C EVEN (dsDNA)
DNA 1: TTGCGGACTTTCCAGGC
DNA 2: GCCTGGAAAGTCCGCAA
With B15, the figures for the IC50 in data set [1] and in data set [2] were 52 fold molar excess and 48 fold molar excess, respectively.

B16: decoy 123 A-W (dsDNA)
DNA 1: CTCGGGACTTTCCTGT
DNA 2: ACAGGAAAGTCCCGAG
As to B16, the IC50 turned out to be 10 fold molar excess in data set [1] and 8 fold molar excess in data set [2].

B17: decoy 309 M-T (dsDNA)
DNA 1: CCTTGAAGGGATTTCCCTCC
DNA 2: GGAGGGAAATCCCTTCAAGG
B17: the IC50 in data set [1] was 50 fold molar excess; in data set [2], 45 fold molar excess.

B18: 153/154 PO/H5 (dsDNA)
DNA 1: AGTTGAGGACTTTCCAGGC
DNA 2: GCCTGGAAAGTCCTCAACT
modifications: strand 153 PO; strand 154 PS at the 5 3'-most linkages
For B18, in data set [2], the IC50 came out at 65 fold molar excess.

B19: 153/154 PS/PS (dsDNA)
DNA 1: AGTTGAGGACTTTCCAGGC
DNA 2: GCCTGGAAAGTCCTCAACT
modifications: full PS, both strands
In data set [2], B19 yielded an IC50 of 5 fold molar excess.

B20: 153/154 PS/PO (dsDNA)
DNA 1: AGTTGAGGACTTTCCAGGC
DNA 2: GCCTGGAAAGTCCTCAACT
modifications: strand 153 full PS; strand 154 PO
B20: the IC50 in data set [1] and in data set [2] was 5 fold molar excess each time.

B21: decoy 145 A-Z (dsDNA)
DNA 1: AGTTGAGGGACTTTCCAGGC
DNA 2: GCCTGGAAAGTCCCTCAACT
With B21, the IC50 in data set [1] and in data set [2] was 8 fold molar excess each time.

B22: decoy 263 H-Z (dsDNA)
DNA 1: AGTTGAGGATTTCCAGGC
DNA 2: GCCTGGAAATCCTCAACT
With B22, the results for the IC50 in data set [1] and in data set [2] were 82 fold molar excess and 73 fold molar excess, respectively.

B23: 153/154 PO (dsDNA)
DNA 1: AGTTGAGGACTTTCCAGGC
DNA 2: GCCTGGAAAGTCCTCAACT
modifications: full phosphodiester, both strands
As for B23, the IC50 was determined as 92 fold molar excess in data set [1] and 58 fold molar excess in data set [2].

B24: 153/154 H5/PO (dsDNA)
DNA 1: AGTTGAGGACTTTCCAGGC
DNA 2: GCCTGGAAAGTCCTCAACT
modifications: strand 153 PS at the 5 3'-most linkages; strand 154 PO
With B24, the IC50 in data set [2] worked out at 59 fold molar excess.

B25: decoy 177 E-W (dsDNA)
DNA 1: CTCGGACTTTCCTGT
DNA 2: ACAGGAAAGTCCGAG
As for B25, in data set [2], the IC50 was 57.5 fold molar excess.

B26: 153/154 H11/PO (dsDNA)
DNA 1: AGTTGAGGACTTTCCAGGC
DNA 2: GCCTGGAAAGTCCTCAACT
modifications: strand 153 PS at the 11 3'-most linkages; strand 154 PO
Turning to B26, in data set [2], the IC50 worked out at 7.5 fold molar excess.

B27: decoy 195 C-V (dsDNA)
DNA 1: TCGGGGACTTTCCCTC
DNA 2: GAGGGAAAGTCCCCGA
For B27, the IC50 in data set [1] came to 9 fold molar excess; in data set [2] it was 8.5 fold molar excess.

B28: decoy 117 E-U (dsDNA)
DNA 1: ATGGACTTTCCGT
DNA 2: ACGGAAAGTCCAT
For B28, in data set [2], the IC50 was found to be 72.5 fold molar excess.

B29: decoy 295 (dsDNA)
DNA 1: TGAGGACTTTCCAGGCTC
DNA 2: GAGCCTGGAAAGTCCTCA
With B29, the IC50 in data set [2] is 92 fold molar excess.

B30: decoy 173 E-Z-4 (dsDNA)
DNA 1: TTGAGGACTTTCCAG
DNA 2: CTGGAAAGTCCTCAA
In turn, B30 displayed an IC50 in data set [2] of 55 fold molar excess.

B31: 153/154 H6/H6 (dsDNA)
DNA 1: AGTTGAGGACTTTCCAGGC
DNA 2: GCCTGGAAAGTCCTCAACT
modifications: PS at the 6 3'-most linkages of each strand
For the molecule B31, the IC50 in data set [2] turned out to be 40 fold molar excess.

B32: decoy 151 D-Z (dsDNA)
DNA 1: AGTTGAGGGATTTCCAGGC
DNA 2: GCCTGGAAATCCCTCAACT
For B32, the IC50 in data set [1] worked out at 69 fold molar excess; in data set [2], 36 fold molar excess.

B33: decoy 265 I-Z (dsDNA)
DNA 1: AGTTGAGGATTTCCCAGGC
DNA 2: GCCTGGGAAATCCTCAACT
For B33, the IC50 in data set [1] is 84 fold molar excess; in data set [2] it was 54 fold molar excess.

B34: 153/154 H10/H10 (dsDNA)
DNA 1: AGTTGAGGACTTTCCAGGC
DNA 2: GCCTGGAAAGTCCTCAACT
modifications: PS at the 10 3'-most linkages of each strand
Molecule B34 had an IC50 in data set [2] of 21 fold molar excess.

B35: decoy 239 C-W' (dsDNA)
DNA 1: CTCGGGGACTTTCCCTCA
DNA 2: TGAGGGAAAGTCCCCGAG
B35: the IC50 in data set [1] and in data set [2] was 9 fold molar excess throughout.

B36: 153/154 H9/H9 (dsDNA)
DNA 1: AGTTGAGGACTTTCCAGGC
DNA 2: GCCTGGAAAGTCCTCAACT
modifications: PS at the 9 3'-most linkages of each strand
On to B36, for which the IC50 in data set [2] was found to be 17 fold molar excess.

B37: decoy 197 C-W (dsDNA)
DNA 1: CTCGGGGACTTTCCCTGT
DNA 2: ACAGGGAAAGTCCCCGAG
As to B37, the IC50 was 17.5 fold molar excess in data set [1] and 26 fold molar excess in data set [2].

B38: 153/154 H5/H5 (dsDNA)
DNA 1: AGTTGAGGACTTTCCAGGC
DNA 2: GCCTGGAAAGTCCTCAACT
modifications: PS at the 5 3'-most linkages of each strand
B38 came in with an IC50 in data set [2] of 50 fold molar excess.

B39: decoy 141 A-Z-2 (dsDNA)
DNA 1: GTTGAGGGACTTTCCAGG
DNA 2: CCTGGAAAGTCCCTCAAC
Regarding B39, the figures for the IC50 in data set [1] and in data set [2] were 10 fold molar excess and 7.5 fold molar excess, respectively.

B40: 153/154 H10/H8 (dsDNA)
DNA 1: AGTTGAGGACTTTCCAGGC
DNA 2: GCCTGGAAAGTCCTCAACT
modifications: PS at the 10 (153) and 8 (154) 3'-most linkages
Molecule B40 registered an IC50 in data set [2] of 9 fold molar excess.

B41: decoy 259 E-Z' (dsDNA)
DNA 1: TTGAGGACTTTCCAGGCTC
DNA 2: GAGCCTGGAAAGTCCTCAA
Turning to B41, the IC50 was determined as 85 fold molar excess in data set [1] and 87 fold molar excess in data set [2].

B42: decoy 153/154 E-Z (dsDNA)
DNA 1: AGTTGAGGACTTTCCAGGC
DNA 2: GCCTGGAAAGTCCTCAACT
Take B42: the IC50 turned out to be 96 fold molar excess in data set [1] and 62.4 fold molar excess in data set [2].

B43: decoy 227 H-V (dsDNA)
DNA 1: TCGGATTTCCTC
DNA 2: GAGGAAATCCGA
On to B43, for which the IC50 in data set [2] came to 74 fold molar excess.

These data come from US20070078102A1, “NF-kB oligonucleotide decoy molecules” (published 2007).
